The values below come from PMC4475299, “Characterization and applications of Nanobodies against human procalcitonin selected from a novel naïve Nanobody phage display library” (Journal of Nanobiotechnology, 2015).

The chains are these.
B1: PCT Nb2 (VHH)
VHH: QVQLQESGGGSVQAGGSLRLSCAASTSSNVNVCMGWFRQAPGKEREGVAVIARDSETNYAASVKGRFTISQDNAKNTLYLQLNSLKPEDTAMYYCAAGPCANIRGSWSNSRLLRYNFWGQGTQVTVSS
notes: VHH from a naïve bactrian camel phage display library; Expressed from phagemid pMECS; source: E. coli WK6, periplasmic extract by osmotic shock, purified (Ni-NTA, 500 mM imidazole); not shown: HA, C-terminal, kept
B2: PCT Nb1 (VHH)
VHH: QVQLQESGGGSVQAGGSLRLSCLASGYTYSSYCMGWFRQAPGKEREGVAAIGSDGSTSYADSVKGRFTISQDNAKNTLYLQMNSLKPEDTAMYYCAASKSEYDCYSGSGGLFGYWGQGTQVTVSS
notes: as for B1
B3: PCT Nb3 (VHH)
VHH: QVQLQESGGGSVQVGGSLRLSCAASGYTYSSACMGWFRQAPGKEREWVGSIVSDSDDRTNYADAVKGRFTITQDNAKNTVYLQMNSLKPEDTAMYYCAARPGNCFIATKTRRYDYWGQGTQVTVSS
notes: as for B1

In this assay the target is T1, human procalcitonin (Homo sapiens, UniProt P01258).
T1 construct: human procalcitonin (PCT), the product of preprocalcitonin after removal of the signal peptide; Bought protein; also called PCT; source: bought: Huibiao Biological Technology Co., Ltd
In words: SPR; SPRi on PlexArray HT; Nbs spotted and immobilised on NanoCapture 3D-chip; PCT injected at 9.7, 29.2, 87.6 and 263 nM in PBST, 2 uL/s; 1:1 Langmuir fit. As to conditions: both partners purified. (In general: SPR reads the build-up and loss of mass on a sensor chip optically.)
As for B1, the dissociation constant (Kd) amounted to 1.34 nM, the koff was determined as 0.000197 s⁻¹ and the kon is 147000 M⁻¹ s⁻¹.

As to B2, the Kd amounted to 12.3 nM, the off-rate (koff) amounted to 0.00051 s⁻¹ and the kon stood at 41600 M⁻¹ s⁻¹.

For B3, the Kd was 8.89 nM, the off-rate constant (koff) is 0.000383 s⁻¹ and the on-rate constant (kon) turned out to be 43100 M⁻¹ s⁻¹.

By Kd is commonly meant the equilibrium constant for the complex coming apart. The term koff denotes the first-order rate constant of dissociation. The kon is a measure of how fast the partners come together.
